Results: patent publication US20240034792A1 (HARBOUR BIOMED SHANGHAI, published 2024)

T1: Human CD73 expressed on CHO-K1 cells (CHO-K1-hCD73) (human, UniProt P21589 27-549)
T1 construct: whole, on cells
T1 sequence (looked up): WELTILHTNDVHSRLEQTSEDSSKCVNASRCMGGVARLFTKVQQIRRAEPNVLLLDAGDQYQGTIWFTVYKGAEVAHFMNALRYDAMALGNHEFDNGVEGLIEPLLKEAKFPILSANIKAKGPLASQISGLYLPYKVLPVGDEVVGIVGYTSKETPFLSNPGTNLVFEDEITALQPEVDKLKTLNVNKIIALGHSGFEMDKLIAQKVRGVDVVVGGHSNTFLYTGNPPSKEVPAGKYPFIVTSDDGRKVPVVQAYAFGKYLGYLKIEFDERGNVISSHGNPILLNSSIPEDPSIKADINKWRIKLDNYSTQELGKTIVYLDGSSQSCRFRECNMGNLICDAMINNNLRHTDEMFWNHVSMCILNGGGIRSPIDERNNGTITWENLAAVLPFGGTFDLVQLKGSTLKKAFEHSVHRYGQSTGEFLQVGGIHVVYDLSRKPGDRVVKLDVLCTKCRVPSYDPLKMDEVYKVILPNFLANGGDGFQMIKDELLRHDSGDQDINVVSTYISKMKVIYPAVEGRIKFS


How the values were obtained:
[1] = target: T2, Cynomolgus monkey PD-1-His protein (AcroBiosystems, # PD1-05223) (cynomolgus monkey, UniProt B0LAJ3 25-170); test: ELISA, plate-coated cynomolgus monkey PD-1-His
T2 construct: Bought reagent, coated on the ELISA plate; also called cynomolgus monkey PD-1 protein
T2 sequence (B0LAJ3 entry or part of it limits assumed): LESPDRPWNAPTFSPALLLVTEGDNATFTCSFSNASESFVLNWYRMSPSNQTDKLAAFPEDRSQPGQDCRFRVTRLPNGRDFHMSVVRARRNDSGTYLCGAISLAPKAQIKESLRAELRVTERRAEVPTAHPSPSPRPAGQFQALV
Experimental: Cynomolgus monkey PD-1-His protein (AcroBiosystems, # PD1-05223) was diluted to 2 μg/mL with PBS, added to a 96-well plate (Corning, #9018) at 100 μL/well, and incubated at 4° C. overnight. After the liquid was discarded, the plate was washed 3 times with PBST, blocked by adding 250 μL of 2% BSA, and incubated at room temperature for 1 h. The blocking buffer was discarded, and the plate was washed 3 times with PBST buffer (pH 7.4, containing 0.05% Tween-20). The test antigen-binding protein was diluted to 5 μg/mL, and added at 100 μL/well. The plate was incubated at 37° C. for 1 h. After the plate was washed 3 times with PBST buffer (pH 7.4, containing 0.05% Tween-20), a 4000-fold diluted goat anti-human HRP secondary antibody (Invitrogen, #A18805) was added. The plate was incubated at 37° C. for 1 h. After the plate was washed, TMB (Biopanda, # TMB-S-003) was added at 100 μL/well. The plate was left away from light at room temperature for 5 min. The reactions were terminated by adding 50 μL of stop buffer (BBI life sciences, #E661006-0200) to each well, and the absorbance values at 450 nm (OD450) were measured using a microplate reader (PerkinElemer, #Enspire).

[2] = target: T3, Cynomolgus monkey PD-1 expressed on CHO-K1 cells (CHO-K1/cyno PD-1) (cynomolgus monkey, UniProt B0LAJ3 25-288); test: FACS, CHO-K1/cyno PD-1 cells
T3 construct: also called CHO-K1 cells overexpressing cynomolgus monkey PD-1
T3 sequence (B0LAJ3 entry or part of it limits assumed): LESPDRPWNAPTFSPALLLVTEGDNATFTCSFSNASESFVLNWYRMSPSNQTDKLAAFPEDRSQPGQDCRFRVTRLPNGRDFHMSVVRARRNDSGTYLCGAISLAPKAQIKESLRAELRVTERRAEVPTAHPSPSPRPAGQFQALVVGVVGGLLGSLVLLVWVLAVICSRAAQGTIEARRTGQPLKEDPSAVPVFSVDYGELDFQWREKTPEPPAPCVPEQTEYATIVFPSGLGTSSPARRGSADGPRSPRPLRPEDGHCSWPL
Experimental: (§1) In order to investigate the in vitro binding activity of the PD-1 antigen-binding proteins to human/cynomolgus monkey PD-1, the binding assay at the cellular level was performed using a CHO-K1 cell strain overexpressing human or cynomolgus monkey PD-1 (CHO-K1/hPD-1 or CHO-K1/cyno PD-1, from GenScript). Briefly, the CHO-K1-hPD-1 cells were digested and resuspended in an F-12K complete medium, and the cell density was adjusted to 1×10⁶ cells/mL. The cells were seeded in a 96-well V-bottom plate (Corning, Cat#3894) at 100 μL/well, followed by the addition of the test antigen-binding proteins with concentrations 2-fold of final concentrations obtained by 5-fold gradient dilution were each added at 100 μL/well. The mixtures were well mixed. The maximum final concentration of the antigen-binding proteins was 100 nM or 300 nM. A total of 8-11 concentrations were set. hIgG was used as a control. The cells were incubated at 4° C. for 1 h away from light. Thereafter, the cells in each well were rinsed twice with 100 μL of pre-cooled PBS, and centrifuged at 500 g at 4° C. for 5 min, and then the supernatant was discarded. Then 100 μL of a fluorescent secondary antibody (goat anti-human IgG (H+L) secondary antibody, Alexa Fluor® 488 conjugate, Invitrogen, Cat #A11013, 1:1000) was added to each well. The plate was incubated away from light at 4° C. for 30 min. The cells in each well were rinsed twice with 200 μL of pre-cooled PBS, and centrifuged at 500 g at 4° C. for 5 min, and then the supernatant was discarded. Finally, the cells in each well were resuspended in 200 μL of pre-cooled PBS, and the fluorescence signal values were read using a BD FACS CANTOII.

[3] = target: T1, Human CD73 expressed on CHO-K1 cells …; test: FACS, CHO-K1-hCD73 cells
Experimental: In order to investigate the binding activity of the CD73×PD-1 bispecific antibody to human CD73 and PD-1, the binding assay at the cellular level was performed using a CHO-K1 cell strain overexpressing human CD73 or PD-1 (CHO-K1-hCD73 or CHO-K1-hPD-1). Briefly, the CHO-K1-hCD73 and CHO-K1-hPD-1 cells were digested and resuspended in an F-12K complete medium, and the cell density was adjusted to 1×10⁶ cells/mL. The cells were seeded in a 96-well V-bottom plate (Corning, #3894) at 100 μL/well, followed by the addition at 100 μL/well and centrifugation at 500 g at 4° C. for 5 min, and then the supernatant was discarded. Antibodies were 3-fold diluted to a maximum final concentration of 50 nM, and a total of 8 concentrations were set. 100 μL of the diluted antibodies was added to each well, and the cells were incubated at 4° C. for 1 h away from light. Thereafter, the cells in each well were rinsed twice with 100 μL of pre-cooled PBS, and centrifuged at 500 g at 4° C. for 5 min, and then the supernatant was discarded. Then 100 μL of a fluorescent secondary antibody (goat anti-human IgG (H+L) secondary antibody, Alexa Fluor® 488 conjugate, Invitrogen, Cat #A11013, 1:1000) was added to each well. […] Finally, the cells in each well were resuspended in 200 μL of pre-cooled PBS, and the fluorescence signal values were read using a BD FACS CANTOII.

[4] = target: T4, Human PD-1 expressed on CHO-K1 cells (CHO-K1/hPD-1) (human, UniProt Q15116 25-288); test: FACS blocking of biotin-labeled human PD-L1 binding to CHO-K1-hPD-1 cells
T4 construct: whole, on cells; also called CHO-K1 cells overexpressing human PD-1
T4 sequence (Q15116 25-288): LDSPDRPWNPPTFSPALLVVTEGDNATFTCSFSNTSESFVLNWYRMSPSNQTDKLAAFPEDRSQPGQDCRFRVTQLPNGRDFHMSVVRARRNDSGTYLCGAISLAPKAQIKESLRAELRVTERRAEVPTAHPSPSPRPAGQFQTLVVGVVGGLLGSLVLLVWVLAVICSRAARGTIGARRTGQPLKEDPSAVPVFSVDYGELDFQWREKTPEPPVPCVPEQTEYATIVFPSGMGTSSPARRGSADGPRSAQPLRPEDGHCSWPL
Experimental: Briefly, the CHO-K1-hPD-1 cells were digested and resuspended in an F-12K complete medium, and the cell density was adjusted to 1×10⁶ cells/mL. The cells were seeded in a 96-well V-bottom plate (Corning, Cat#3894) at 100 μL/well, followed by the addition of the test antigen-binding proteins with concentrations 2-fold of final concentrations obtained by 3-fold or 5-fold gradient dilution were each added at 100 μL/well. The mixtures were well mixed. The maximum final concentration of the antigen-binding proteins was 100 nM or 300 nM. A total of 8 concentrations were set. hIgG was used as a control. The cells were incubated at 4° C. for 1 h away from light. […] The cells were incubated at 4° C. away from light for 30 min. The cells in each well were rinsed twice with 100 μL of pre-cooled PBS, and centrifuged at 500 g at 4° C. for 5 min, and then the supernatant was discarded. A fluorescent secondary antibody (PE Streptavidin, BD, Cat# 554061, 1:200) was added at 100 μL/well, and the cells were incubated at 4° C. away from light for 30 min. The cells in each well were rinsed twice with 200 μL of pre-cooled PBS, and centrifuged at 500 g at 4° C. for 5 min, and then the supernatant was discarded. Finally, the cells in each well were resuspended in 200 μL of pre-cooled PBS, the fluorescence signal values were read using a BD FACS CANTOII, and the IC₅₀ values were calculated.

[5] = target: T5, Human PD-1-His protein (ACROBiosystems, # PD1-H5221) (human, UniProt Q15116 25-167); test: ELISA, plate-coated human PD-1-His
T5 construct: Bought reagent, coated on the ELISA plate; also called human PD-1 protein; human PD-1 antigen; not shown: His tag
T5 sequence (Q15116 25-167 limits assumed): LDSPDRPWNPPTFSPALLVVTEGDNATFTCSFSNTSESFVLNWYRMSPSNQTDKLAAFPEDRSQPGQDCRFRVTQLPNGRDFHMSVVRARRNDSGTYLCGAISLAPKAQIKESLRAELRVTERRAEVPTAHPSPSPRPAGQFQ
Experimental: Human PD-1-His protein (ACROBiosystems, # PD1-H5221) was diluted to 2 μg/mL with PBS, added to a 96-well plate (Corning, cat#9018) at 100 μL/well, and incubated at 4° C. overnight. After the liquid was discarded, the plate was washed 3 times with PBST buffer (pH 7.4, containing 0.05% Tween-20), and 250 μL of 2% BSA blocking buffer was added. The plate was incubated at 37° C. for 1 h. The blocking buffer was discarded, and the plate was washed 3 times with PBST buffer (pH 7.4, containing 0.05% Tween-20). The test antigen-binding protein was 5-fold diluted in sequence at an initial concentration of 100 nM for a total of 8-10 concentration gradients, and added at 100 μL/well. The plate was incubated at 37° C. for 1 h. An isotype antibody was taken as a control. After the plate was washed 3 times with PBST buffer (pH 7.4, containing 0.05% Tween-20), a 4000-fold diluted goat anti-human HRP secondary antibody (Invitrogen, #A18805) was added. The plate was incubated away from light at 37° C. for 1 h. After the plate was washed 3 times with PBST buffer (pH 7.4, containing 0.05% Tween-20), TMB (Biopanda, # TMB-S-003) was added at 100 μL/well. The plate was left away from light at room temperature for about 5 min. The reactions were terminated by adding 50 μL of stop buffer (BBI life sciences, #E661006-0200) to each well, and the absorbance values at 450 nm (OD450) were measured using a microplate reader (PerkinElemer, #Enspire). The half maximal effective concentration (EC₅₀) was calculated from the measurement results.

[6] = target: T4, Human PD-1 expressed on CHO-K1 cells …; test: FACS, CHO-K1/hPD-1 cells
Experimental: as §1

Binder	EC50 [1] [nM]	OD Maximum [1]	EC50 [2] [nM]	MFI Maximum [2]	EC50 [3] [nM]	IC50 [4] [nM]	Maximum inhibition rate (%) [4] [%]	EC50 [5] [nM]	OD Maximum [5]	EC50 [6] [nM]	MFI Maximum [6]
PR000846 (antibody, human IgG1, kappa, L234A L235A, V domains shown, Parent monoclonal antibody of the CD73 end of PR003568; also called anti-CD73 IgG monoclonal antibody PR000846; anti-CD73 H2L2 antibody PR000846) VH: QVQLVESGGGVAQPGRSLSLSCAASGFTFSDYGMHWVRQAPGKGLEWVALIWYDASFEYYADSVKGRFSISRDNSKNTLYLQMNSLRAEDTAVYYCVRDAQWGSRLDYWGQGTLVTVSS VL: KIVMTQSPATLSLSPGERATLSCRASQSVSRYLAWYQQKPGQAPRLLIYDASNRATGIPARFSGSGSGTDFTLTISSLEPEDFAVYYCQQRSNWIFTFGPGTKVDIKR					1.45						
PR002479 (antibody, human IgG1, V domains shown, Heavy-chain-only antibody (HCAb), human IgG1 Fc; two heavy chains, no light chain; also called R4004P551D6) VH: EVQLVETGGGLIQPGGSLRLSCAASGFNVSSHYMSWVRQAPGKGLEWVSIIHSGGSTYYADSVKGRFTISRDNSKNRLYLQMNSLRAEDTAVYYCARATAVAEENGYNYPFNYWGQGTLVTVSS	0.252	2.88				16.2	96.2	0.152	2.85	17	1.05e+06

Now from value to binder:

EC50 [1] [nM]	OD Maximum [1]	EC50 [2] [nM]	MFI Maximum [2]	EC50 [3] [nM]	IC50 [4] [nM]	Maximum inhibition rate (%) [4] [%]	EC50 [5] [nM]	OD Maximum [5]	EC50 [6] [nM]	MFI Maximum [6]	Binder
0.039	2.86	0.998	19100								PR000150 (pembrolizumab analog) (antibody, human IgG4 S228P, kappa, V domains shown, Anti-PD-1 positive control; also called positive control antibody pembrolizumab) VH: QVQLVQSGVEVKKPGASVKVSCKASGYTFTNYYMYWVRQAPGQGLEWMGGINPSNGGTNFNEKFKNRVTLTTDSSTTTAYMELKSLQFDDTAVYYCARRDYRFDMGFDYWGQGTTVTVSS VL: EIVLTQSPATLSLSPGERATLSCRASKGVSTSGYSYLHWYQQKPGQAPRLLIYLASYLESGVPARFSGSGSGTDFTLTISSLEPEDFAVYYCQHSRDLPLTFGGGTKVEIKR
0.345	2.89				8.91	92.2	0.189	2.97	13.9	1.08e+06	PR002474 (antibody, human IgG1, V domains shown, Heavy-chain-only antibody (HCAb), human IgG1 Fc; two heavy chains, no light chain; also called R4004P547D3) VH: EVQLVETGGGLIQPGGSLRLSCAASGFNVSSHYMSWVRQAPGKGLEWVSIIHSGGSTYYADSVKGRFTISRDNSKNRLYLQMNSLRADDTAVYYCARATAVAEKNGYNYPFNYWGQGTLVTVSS
0.366	2.7				10.3	91.3	0.171	2.92	12.7	1.02e+06	PR002476 (antibody, human IgG1, V domains shown, Heavy-chain-only antibody (HCAb), human IgG1 Fc; two heavy chains, no light chain; also called R4004P547H11) VH: EVQLVETGGGLIQPGGSLRLSCAASGFNVSSHYMSWVRQAPGKGLEWVSIIHSGGSTYYADSVKGRFTISRDNSKNRLYLQMNSLRAEDTAVYYCARATAVAEKNGYNYPFNYWGQGTLVTVSS
